Data published in the supplement of paper PMC11246515.
± gives the standard deviation of the averaged measurements.

Experiment: total protein half-life in vivo (active degradation + dilution); higher = more stable protein
[1] = E. coli NCM3722 delta-clpP delta-lon delta-hslV, growth: N-lim chemostat, doubling time 6 h
[2] = E. coli NCM3722 delta-clpP, growth: N-lim chemostat, doubling time 6 h
[3] = E. coli NCM3722 delta-hslV, growth: N-lim chemostat, doubling time 6 h
[4] = E. coli NCM3722 delta-lon, growth: N-lim chemostat, doubling time 6 h
[5] = E. coli NCM3722 delta-smpB, growth: N-lim chemostat, doubling time 6 h
[6] = wild type E. coli NCM3722, growth: C-lim chemostat, doubling time 3 h
[7] = wild type E. coli NCM3722, growth: C-lim chemostat, doubling time 6 h
[8] = wild type E. coli NCM3722, growth: C-lim chemostat, doubling time 12 h
[9] = wild type E. coli NCM3722, growth: N-lim chemostat, doubling time 6 h
[10] = wild type E. coli NCM3722, growth: N-lim chemostat, doubling time 12 h
[11] = wild type E. coli NCM3722, growth: P-lim chemostat, doubling time 6 h
[12] = wild type E. coli NCM3722, growth: P-lim chemostat, doubling time 12 h

Sequence	total protein half-life in vivo [1] [h]	total protein half-life in vivo [2] [h]	total protein half-life in vivo [3] [h]	total protein half-life in vivo [4] [h]	total protein half-life in vivo [5] [h]	total protein half-life in vivo [6] [h]	total protein half-life in vivo [7] [h]	total protein half-life in vivo [8] [h]	total protein half-life in vivo [9] [h]	total protein half-life in vivo [10] [h]	total protein half-life in vivo [11] [h]	total protein half-life in vivo [12] [h]
MTIALELQQLKKTYPGGVQALRGIDLQVEAGDFYALLGPNGAGKSTTIGIISSLVNKTSGRVSVFGYDLEKDVVNAKRQLGLVPQEFNFNPFETVQQIVVNQAGYYGVERKEAYIRSEKYLKQLDLWGKRNERARMLSGGMKRRLMIARALMHEPKLLILDEPTAGVDIELRRSMWGFLKDLNDKGTTIILTTHYLEEAEMLCRNIGIIQHGELVENTSMKALLAKLKSETFILDLAPKSPLPKLDGYQYRLVDTATLEVEVLREQGINSVFTQLSEQGIQVLSMRNKANRLEELFVSLVNEKQGDRA	6.97 ± 0.91	6.29 ± 0.4	6.1 ± 1	6.83 ± 0.17	6.4 ± 0.21	3.09 ± 0.16	6.21 ± 0.28	11.6 ± 1.9	6.14 ± 0.38	12.1 ± 0.42	6.24 ± 0.29	12.7 ± 0.8
MKRPDYRTLQALDAVIRERGFERAAQKLCITQSAVSQRIKQLENMFGQPLLVRTVPPRPTEQGQKLLALLRQVELLEEEWLGDEQTGSTPLLLSLAVNADSLATWLLPALAPVLADSPIRLNLQVEDETRTQERLRRGEVVGAVSIQHQALPSCLVDKLGALDYLFVSSKPFAEKYFPNGVTRSALLKAPVVAFDHLDDMHQAFLQQNFDLPPGSVPCHIVNSSEAFVQLARQGTTCCMIPHLQIEKELASGELIDLTPGLFQRRMLYWHRFAPESRMMRKVTDALLDYGHKVLRQD [P0A8S1]	5.48 ± 0.31	5.93 ± 1.3	5.46 ± 0.27	5.78 ± 0.57	4.96 ± 0.39	3.01 ± 0.31	–	11.6 ± 0.16	5.84 ± 0.67	9.72 ± 0.46	6.03 ± 0.091	13.4 ± 0.89
MRNPTLLQCFHWYYPEGGKLWPELAERADGFNDIGINMVWLPPAYKGASGGYSVGYDSYDLFDLGEFDQKGSIPTKYGDKAQLLAAIDALKRNDIAVLLDVVVNHKMGADEKEAIRVQRVNADDRTQIDEEIIECEGWTRYTFPARAGQYSQFIWDFKCFSGIDHIENPDEDGIFKIVNDYTGEGWNDQVDDELGNFDYLMGENIDFRNHAVTEEIKYWARWVMEQTQCDGFRLDAVKHIPAWFYKEWIEHVQEVAPKPLFIVAEYWSHEVDKLQTYIDQVEGKTMLFDAPLQMKFHEASRMGRDYDMTQIFTGTLVEADPFHAVTLVANHDTQPLQALEAPVEPWFKPLAYALILLRENGVPSVFYPDLYGAHYEDVGGDGQTYPIDMPIIEQLDELILARQRFAHGVQTLFFDHPNCIAFSRSGTDEFPGCVVVMSNGDDGEKTIHLGENYGNKTWRDFLGNRQERVVTDENGEATFFCNGGSVSVWVIEEVI	5.23 ± 0.094	4.16 ± 0.08	4.036 ± 0.019	4.4 ± 0.36	4.26 ± 0.12	3.21 ± 0.87	6.29 ± 0.87	12.4 ± 0.27	4.2 ± 0.082	6.75 ± 0.24	5.54 ± 0.59	13.4 ± 0.48
MLAFLNQVRKPTLDLPLEVRRKMWFKPFMQSYLVVFIGYLTMYLIRKNFNIAQNDMISTYGLSMTQLGMIGLGFSITYGVGKTLVSYYADGKNTKQFLPFMLILSAICMLGFSASMGSGSVSLFLMIAFYALSGFFQSTGGSCSYSTITKWTPRRKRGTFLGFWNISHNLGGAGAAGVALFGANYLFDGHVIGMFIFPSIIALIVGFIGLRYGSDSPESYGLGKAEELFGEEISEEDKETESTDMTKWQIFVEYVLKNKVIWLLCFANIFLYVVRIGIDQWSTVYAFQELKLSKAVAIQGFTLFEAGALVGTLLWGWLSDLANGRRGLVACIALALIIATLGVYQHASNEYIYLASLFALGFLVFGPQLLIGVAAVGFVPKKAIGAADGIKGTFAYLIGDSFAKLGLGMIADGTPVFGLTGWAGTFAALDIAAIGCICLMAIVAVMEERKIRREKKIQQLTVA [P0AGC0]	–	–	–	–	–	1.74 ± 0.042	1.96 ± 0.031	3.78 ± 2.4	–	–	–	–
MAFTPFPPRQPTASARLPLTLMTLDDWALATITGADSEKYMQGQVTADVSQMAEDQHLLAAHCDAKGKMWSNLRLFRDGDGFAWIERRSVREPQLTELKKYAVFSKVTIAPDDERVLLGVAGFQARAALANLFSELPSKEKQVVKEGATTLLWFEHPAERFLIVTDEATANMLTDKLRGEAELNNSQQWLALNIEAGFPVIDAANSGQFIPQATNLQALGGISFKKGCYTGQEMVARAKFRGANKRALWLLAGSASRLPEAGEDLELKMGENWRRTGTVLAAVKLEDGQVVVQVVMNNDMEPDSIFRVRDDANTLHIEPLPYSLEE [P0ADE8]	5.041 ± 0.022	4.7 ± 0.35	5.202 ± 0.032	5.31 ± 0.23	4.327 ± 0.0059	2.8172 ± 0.0011	5.45 ± 0.19	9.03 ± 1.1	5.25 ± 0.67	7.936 ± 0.018	5.54 ± 0.069	11.3 ± 1.9
MKSALKKSVVSTSISLILASGMAAFAAHAADDVKLKATKTNVAFSDFTPTEYSTKGKPNIIVLTMDDLGYGQLPFDKGSFDPKTMENREVVDTYKIGIDKAIEAAQKSTPTLLSLMDEGVRFTNGYVAHGVSGPSRAAIMTGRAPARFGVYSNTDAQDGIPLTETFLPELFQNHGYYTAAVGKWHLSKISNVPVPEDKQTRDYHDNFTTFSAEEWQPQNRGFDYFMGFHAAGTAYYNSPSLFKNRERVPAKGYISDQLTDEAIGVVDRAKTLDQPFMLYLAYNAPHLPNDNPAPDQYQKQFNTGSQTADNYYASVYSVDQGVKRILEQLKKNGQYDNTIILFTSDNGAVIDGPLPLNGAQKGYKSQTYPGGTHTPMFMWWKGKLQPGNYDKLISAMDFYPTALDAADISIPKDLKLDGVSLLPWLQDKKQGEPHKNLTWITSYSHWFDEENIPFWDNYHKFVRHQSDDYPHNPNTEDLSQFSYTVRNNDYSLVYTVENNQLGLYKLTDLQQKDNLAAANPQVVKEMQGVVREFIDSSQPPLSEVNQEKFNNIKKALSEAK	–	–	–	–	–	2.86 ± 0.07	5.43 ± 0.41	–	7.26	6.32	5 ± 0.63	–
